Measured values as given in patent publication US20080207503A1, “Composition and Treatment Methods for Coronary Artery Disease” (priority 2005, published 2008).

Assay: Sphingomyelinase treatment of ICP (hydrolysis of SPM, TLC, cholesterol release)
Assay type: biochemical, human
Procedure: FIG. 7A show the effect of hydrolyzing SPM on ICP by sphingomyelinase on the ICP SPM to PC ratio. Following incubation of ICP in 0.25 M Tris buffer containing 20 mM MgCl2 with 50 units of bacterial sphingomyelinase for 6 hrs at 37° C., the reaction of sphingomyelinase was stopped by adding EDTA and a subsequent wash. A change in the SPM to PC ratio of insoluble ICP was examined by TLC. SPM to PC ratios of control ICP (top) and sphingomyelinase-treated ICP (bottom) were 1.69 and 0.49, respectively.
FIG. 7B show the effect of hydrolyzing SPM on ICP by sphingomyelinase on the release of ICP cholesterol by apo HDL or R-HDL. ICP sphingomyelinase treatment was as described in FIG. 7A. Release of cholesterol from control or sphingomyelinase-treated ICP was then measured after incubation of ICP at ICP FC to apo HDL ratio=1:2.5 or ICP FC to R-HDL PC ratio of 1:10.
Treatment of ICP with bacterial sphingomyelinase hydrolyzed 70% of ICP SPM. […] Rather, the release of ICP cholesterol into TBS, apo HDL, or R-HDL was reduced by prior sphingomyelinase treatment of ICP (FIG. 7B). As a model of ICP, artificial multilamellar SPM vesicles enriched with FC (SPM/FC ratio=1) or containing no FC (control SPM) were incubated with R-HDL. Then, PC and SPM content in residual insoluble multilamellar SPM vesicles and solubilized vesicles were determined by TLC (FIG. 7C). After incubation of FC-enriched multilamellar SPM vesicles (SPM/FC+, FIG. 7C, lane 1) with R-HDL (lane 4), insoluble multilamellar vesicles contained not only SPM but also PC (lane 2), while the soluble fraction contained only PC (lane 3). In contrast, following incubation of FC-free multilamellar SPM vesicles (SPM/FC−, lane 5) with R-HDL (lane 8), the residual insoluble multilamellar vesicles contained SPM and no PC (lane 6), and the upper soluble fraction contained both SPM and PC (lane 7).

B1: bacterial sphingomyelinase: Bacterial (Bacilus cereus) sphingomyelinase from Sigma (protein, UniProt P09599 28-333, looked up)
Sphingomyelinase C: DTSTDQNNTLKVMTHNVYMLSTNLYPNWGQSQRADLIGAADYIKNQDVVILNEVFDNSASDRLLGNLKKEYPNQTAVLGRSNGNEWDKTLGSYSSSTPEDGGVAIVSKWPIVEKIQYVFAKGCGPDNLSNKGFVYTKIKKNDRFVHVIGTHLQAEDSMCGKTSPASVRTNQLKEIQDFIKNKNIPNDEYVLFGGDMNVNKINAENNSDSEYASMFKTLHASIPSYTGHTATWDATTNSIAKYNFPDSPAEYLDYIIASKDHANPSFIENKVLQPKSPQWTVTSWLKKYTYDDYSDHYPVAATISMK
- ICP SPM hydrolyzed (50 units bacterial sphingomyelinase, 6 hrs, 37° C.): 70%
- release of ICP cholesterol into TBS, apo HDL or R-HDL after prior sphingomyelinase treatment (in words) (FIG. 7B): reduced
- ICP SPM/PC ratio after sphingomyelinase treatment (control ICP 1.69 / 1.6, TLC): 0.49
